Test results published in the supplement of paper PMC9732359.
± gives the uncertainty stated by the source.

Experiment: protein stability index of a GFP-peptide fusion (yeast GPS) (PSI 1-4); higher = more stable; sorted into four equal gates, so the index is relative within each strain
Method in brief: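 Tiled 17-residue peptides from yeast proteins were fused downstream of GFP on a plasmid that also expresses Cherry, and the pooled library was carried in yeast. Mid-log cultures grown in leucine-free medium were sorted into four equal gates by GFP/Cherry fluorescence ratio. Plasmids from each gate were PCR-amplified and Illumina-sequenced, and reads were assigned to strains by barcodes. Each peptide's protein stability index is the sum, over gates, of the gate's read frequency multiplied by its gate number.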

| Sequence | protein stability index (doa10∆) | protein stability index (pdr5∆) | protein stability index (san1∆) | protein stability index (ubr1∆) |
| --- | --- | --- | --- | --- |
| EGTSISVHLIECYKQLF [YCS4] | 3.46 ± 0.14 | 3.39 ± 0.12 | 3.42 ± 0.14 | 3.3 ± 0.063 |
| DNATLTELVDKANIFQV [SSN2] | 3.09 ± 0.15 | 3.56 ± 0.12 | 3.21 ± 0.085 | 3.11 ± 0.11 |
| VLPIFTTVFFSRQKSGL [YML031W/NDC1] | 1.53 ± 0.075 | 1.24 ± 0.082 | 1.14 ± 0.095 | 1.11 ± 0.077 |
| GGVPTTSFGQPQSAPNQ [YOR098C/NUP1] | 2.33 ± 0.071 | 1.99 ± 0.085 | 2.36 ± 0.11 | 2.15 ± 0.095 |
| FTFGLTVVQVYDNGQVF [RPP0] | 1.26 ± 0.09 | 1.3 ± 0.1 | 1.36 ± 0.28 | 1.39 ± 0.16 |
| DFKPPYIYSHVNKVPQN [SWP82] | 2.16 ± 0.12 | 2.14 ± 0.11 | 2.79 ± 0.14 | 2.62 ± 0.054 |
| VDVKPKSPKERELEERA [RPC25] | – | 3.07 ± 0.17 | – | 3.31 ± 0.13 |
| EKSDALVGVYRQQQENS [SMC1] | 3.25 ± 0.13 | 3.37 ± 0.098 | 3.41 ± 0.12 | 2.85 ± 0.096 |
| SASLHLNYGVYLNGTLI [RET1] | 2.65 ± 0.16 | – | 3.09 ± 0.1 | 3.18 ± 0.092 |
| VNECIAQSHQRFNAKVS [CDC53] | 2.15 ± 0.039 | 2.6 ± 0.043 | 2.64 ± 0.054 | 2.3 ± 0.027 |
| ISIDSWPTTHKYPLGHF [DIS3] | 2.38 ± 0.077 | 2.74 ± 0.11 | 3.04 ± 0.082 | 2.81 ± 0.072 |
| YNVENQQYVAAGDLRAL [FAS1] | 2.81 ± 0.11 | 2.83 ± 0.087 | 2.82 ± 0.13 | 2.85 ± 0.13 |
| VARFLHFNGIRRLDALV [ITC1] | 3.44 ± 0.16 | 3.45 ± 0.11 | 3.41 ± 0.058 | 3.35 ± 0.08 |
| CRQEFLERVKANAAKRA [RPL21A] | – | 1.33 ± 0.23 | – | – |
| QEMIDILETIFRGARKN [DIB1] | 2.83 ± 0.14 | – | 2.77 ± 0.17 | – |
| VHMYHKSLALLGYNFDG [SNF5] | 2.26 ± 0.059 | 1.78 ± 0.046 | 2.02 ± 0.08 | 2.02 ± 0.05 |
| AGSTGFSFGQNNNNTNT [YGR119C/NUP57] | 2.52 ± 0.068 | 2.5 ± 0.072 | 2.32 ± 0.092 | 2.32 ± 0.064 |
| LRLVDDDENNPSHYPHP [RRP6] | 3.11 ± 0.09 | 2.92 ± 0.093 | 2.77 ± 0.069 | 2.89 ± 0.038 |
| SWASEGISKKTRIAGVV [RPS8A] | 2.54 ± 0.039 | 2.28 ± 0.034 | 2.17 ± 0.045 | 2.03 ± 0.034 |
| QDVIKVLYQSNATHDED [SWP82] | 2.91 ± 0.043 | 2.89 ± 0.04 | 2.69 ± 0.04 | 2.881 ± 0.028 |
| IHGVLKNVDREVVSEAI [FAS2] | 3.19 ± 0.1 | 3.4 ± 0.3 | 3.3 ± 0.14 | – |
| SPSPILLTSAGCKNGSF [NUT1] | 2.01 ± 0.1 | 2.06 ± 0.052 | 1.61 ± 0.24 | 2.41 ± 0.073 |
| FTRPLFVLLEIEPVTKV [YCS4] | 1.94 ± 0.062 | 2.05 ± 0.07 | 1.95 ± 0.081 | 1.97 ± 0.069 |
| SAMPAPYMPYYYYYHPM [DSN1] | 2.4 ± 0.058 | 2.87 ± 0.056 | 2.74 ± 0.049 | 2.84 ± 0.042 |
| DTLDSKSNGSSDDDNIG [ISW2] | 3.26 ± 0.09 | 3.23 ± 0.074 | 3.11 ± 0.057 | 3.03 ± 0.067 |
| YSYTTIVLSDQTQEFFL [YJL039C/NUP192] | 2.79 ± 0.077 | 2.92 ± 0.068 | 2.93 ± 0.081 | 2.82 ± 0.062 |
| SEETQFKYVEDRFPLKL [ITC1] | 3.47 ± 0.13 | 3.09 ± 0.13 | 3.27 ± 0.09 | 3.01 ± 0.14 |

| Sequence | protein stability index (doa10∆) | protein stability index (pdr5∆) | protein stability index (san1∆) | protein stability index (ubr1∆) |
| --- | --- | --- | --- | --- |
| IRGAVGNSEAIPGLSAG [RTT102] | 3.23 ± 0.057 | 3.36 ± 0.068 | 3.26 ± 0.088 | 3.43 ± 0.053 |
| AVKLGDLKKFTSTITKY [RPN3] | 2.1 ± 0.056 | 2.51 ± 0.044 | 2.27 ± 0.066 | 2.56 ± 0.035 |
| VRIFTKIESEDDYILSG [SRB4] | – | – | – | 2.79 ± 0.092 |
| ELTQVPSARQKYMVKGG [UBP6] | 2.6 ± 0.13 | 2.83 ± 0.095 | 2.95 ± 0.1 | 2.96 ± 0.11 |
| TRSKRLSQVYPTLVRSV [CSN12] | 1.72 ± 0.12 | 2.1 ± 0.22 | – | – |
| MHRPVHFLQFSELAGDE [PRP8] | 3.23 ± 0.081 | 3.15 ± 0.084 | 2.88 ± 0.059 | 3.05 ± 0.06 |
| QIELSCNERVPLSVATE [SRP72] | 2.11 ± 0.04 | 2.21 ± 0.053 | 2.1 ± 0.087 | 2.12 ± 0.04 |
| LVNRKPIPFEFQAVIQK [SNF2] | 2.65 ± 0.079 | 2.73 ± 0.057 | 2.71 ± 0.048 | 2.83 ± 0.038 |
| KLILHAIHIFESYYNWK [YML103C/NUP188] | 1.57 ± 0.082 | 1.45 ± 0.07 | 1.58 ± 0.081 | 1.82 ± 0.056 |
| QEIFDANVQRLKEYQSK [RPL13A] | 3.06 ± 0.097 | 3.4 ± 0.15 | 2.93 ± 0.15 | 3.27 ± 0.093 |
| TWEECVFFDDDPLYDIT [REC8] | 3 ± 0.13 | 3.24 ± 0.14 | 2.95 ± 0.06 | 3.08 ± 0.059 |
| YNTSILEFRWLTSSKSV [SIN4] | 1.79 ± 0.065 | 1.91 ± 0.081 | 1.96 ± 0.079 | 2.48 ± 0.1 |
| FGLGYGDVGKNHITEFP [RPC31] | 3.17 ± 0.11 | 3.22 ± 0.11 | 3.38 ± 0.12 | 3.56 ± 0.12 |
| LNEEAVIFLSSLLTLVG [YJL039C/NUP192] | 2.52 ± 0.076 | 2.72 ± 0.086 | 2.3 ± 0.11 | 2.9 ± 0.088 |
| RDVMCTDGVIGSRTTTN [RPO31] | 3.2 ± 0.11 | 3.48 ± 0.084 | 3.16 ± 0.084 | 3.16 ± 0.052 |
| ENEISSLLAMHKHNIMK [CDC53] | 2.92 ± 0.079 | 2.99 ± 0.059 | 3.02 ± 0.052 | 3.07 ± 0.039 |
| PLPSHALTVQEVLNRVA [YDL116W/NUP84] | 2.29 ± 0.039 | 2.37 ± 0.042 | 2.37 ± 0.053 | 2.33 ± 0.027 |
| ERKLKFSNRFLPVASPF [FAS1] | 3.02 ± 0.12 | 3.16 ± 0.11 | 2.91 ± 0.094 | 2.85 ± 0.099 |
| WADNYERKEQEEKEKEQ [BRN1] | 3.47 ± 0.21 | – | 3.49 ± 0.11 | 3.46 ± 0.14 |
| TEENKANTNSVTSMEAA [YIL149C/MLP2] | 3.46 ± 0.1 | 3.5 ± 0.089 | 3.12 ± 0.08 | 3.13 ± 0.058 |
| ELADLPKLKRIGLVKCT [GRR1] | 2.82 ± 0.085 | 2.71 ± 0.051 | 2.28 ± 0.088 | 2.88 ± 0.087 |
| PKWERVFLFDIEKVDRE [RRI2] | 2.4 ± 0.1 | 2.33 ± 0.056 | 2.1 ± 0.1 | 2.57 ± 0.073 |
| VKLTYNSPSSALRALQE [YDL088C/ASM4] | 2.42 ± 0.058 | 2.44 ± 0.066 | 2.62 ± 0.088 | 2.03 ± 0.038 |
| HPNRVLEHLHSTAFQNT [COR1] | 2.79 ± 0.041 | 2.92 ± 0.047 | 2.4 ± 0.051 | 2.92 ± 0.045 |
| YGIPLEFYNEMHRPVHF [PRP8] | 1.85 ± 0.074 | 2.04 ± 0.1 | 1.98 ± 0.14 | 2.64 ± 0.15 |
| WGTLQSVSPQMNAILTD [SMD1] | 2.83 ± 0.11 | 2.66 ± 0.1 | 2.75 ± 0.057 | 2.91 ± 0.074 |
